*: point of attachment. Biotin = O=C1N[C@H]2[C@H](CS[C@H]2CCCCC(=O)*)N1; Ahx = NCCCCCC(=O)O
What was measured:
[1] = biological target: T1, synthetic peptide BAA658-PR3 (Streptococcus pneumoniae strain BAA-658, SMILES …); test: ELISA, biotinylated peptide on NeutrAvidin plates, antibody at 1 μg/mL
T1 peptide: {Biotin-Ahx}-EQPAEQPKPAPAPQP-NH2

[2] = biological target: T2, synthetic peptide BAA658-PR4 (Streptococcus pneumoniae strain BAA-658, SMILES …); test: as above
T2 peptide: {Biotin-Ahx}-KPAPAPQPAPAPKPE-NH2

MBP-PspA-BAA658-S4 = biological target: T3, MBP-PspA-BAA658-S4 (Streptococcus pneumoniae strain BAA-658); test: ELISA on plates coated with E. coli lysate holding the MBP-tagged fragment, antibody at 1 μg/mL
T3 construct: Tested as cleared E. coli lysate coated on ELISA plates; also called MBP-BAA658(S4)

MBP-PspA-BAA658-S3 [3] = biological target: T4, MBP-PspA-BAA658-S3 (Streptococcus pneumoniae strain BAA-658); test: as above
T4 construct: Tested as cleared E. coli lysate coated on ELISA plates; also called MBP-BAA658(S3)

MBP-PspA-BAA658-FL = biological target: T5, MBP-PspA-BAA658-FL (Streptococcus pneumoniae strain BAA-658); test: ELISA on plates coated with E. coli lysate holding the MBP-tagged protein, antibody at 1 μg/mL
T5 construct: Tested as cleared E. coli lysate coated on ELISA plates; also called full BAA-658 peptide; strain BAA-658 FL

[4] = biological target: T6, recombinant PspA-D39 with C-terminal His-tag (Streptococcus pneumoniae strain D39); test: SPR, Biacore 3000, PspA immobilized on CM5 chip, antibody as analyte, bivalent binding model (KD1 = kd1/ka1)
T6 construct: Made in E. coli BL21(DE3), purified on Ni Sepharose; immobilized on a CM5 chip in the SPR assay; also called pelB-PspA(D39)-His; PspA-6xHis (D39)
T6 chain: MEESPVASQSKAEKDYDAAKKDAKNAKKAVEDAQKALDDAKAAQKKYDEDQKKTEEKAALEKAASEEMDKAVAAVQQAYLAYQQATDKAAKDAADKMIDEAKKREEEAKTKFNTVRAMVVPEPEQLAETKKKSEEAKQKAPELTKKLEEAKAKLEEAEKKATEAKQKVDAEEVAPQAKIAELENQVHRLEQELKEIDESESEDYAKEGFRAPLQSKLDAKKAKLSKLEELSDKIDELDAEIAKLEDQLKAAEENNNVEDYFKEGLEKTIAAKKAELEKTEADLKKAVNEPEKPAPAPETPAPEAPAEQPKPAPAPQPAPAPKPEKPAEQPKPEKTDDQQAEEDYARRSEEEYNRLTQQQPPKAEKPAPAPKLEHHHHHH

recombinant PspA-BAA658 = recombinant PspA-BAA658 (Streptococcus pneumoniae strain BAA-658); test: as above
[5] = biological target: T7, recombinant PspA-TIGR4 with C-terminal His-tag (Streptococcus pneumoniae strain TIGR4); test: as above
T7 construct: Made in E. coli BL21(DE3), purified on Ni Sepharose; immobilized on a CM5 chip in the SPR assay; also called pelB-PspA(TIGR4)-His
T7 chain: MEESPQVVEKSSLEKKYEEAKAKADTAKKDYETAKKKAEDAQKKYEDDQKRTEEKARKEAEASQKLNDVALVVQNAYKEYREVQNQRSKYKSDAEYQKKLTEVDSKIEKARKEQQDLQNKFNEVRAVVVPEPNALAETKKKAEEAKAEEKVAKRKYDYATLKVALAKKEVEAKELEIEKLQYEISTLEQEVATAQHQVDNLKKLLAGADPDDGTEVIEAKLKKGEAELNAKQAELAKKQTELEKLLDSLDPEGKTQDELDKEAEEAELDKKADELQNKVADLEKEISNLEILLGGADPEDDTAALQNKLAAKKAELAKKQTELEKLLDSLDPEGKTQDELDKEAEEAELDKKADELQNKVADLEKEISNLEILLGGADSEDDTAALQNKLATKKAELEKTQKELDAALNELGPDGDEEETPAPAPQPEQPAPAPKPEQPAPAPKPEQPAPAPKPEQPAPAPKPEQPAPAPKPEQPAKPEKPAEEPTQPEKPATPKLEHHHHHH

[6] = biological target: T1, synthetic peptide BAA658-PR3; test: ELISA, biotinylated peptide on NeutrAvidin plates
[7] = biological target: T8, synthetic peptide BAA658-PR1 (Streptococcus pneumoniae strain BAA-658, SMILES …); test: ELISA, biotinylated peptide on NeutrAvidin plates
T8 peptide: {Biotin-Ahx}-PEKPAEETPAPAPKPEQ-NH2

[8] = biological target: T9, synthetic peptide BAA658-PR1.2 (Streptococcus pneumoniae strain BAA-658, SMILES …); test: ELISA, biotinylated peptide on NeutrAvidin plates
T9 peptide: {Biotin-Ahx}-PEKPAEETPAPAPKPEQPA-NH2

[9] = biological target: T2, synthetic peptide BAA658-PR4; test: ELISA, biotinylated peptide on NeutrAvidin plates
[10] = biological target: T10, synthetic peptide BAA658-PR2 (Streptococcus pneumoniae strain BAA-658, SMILES …); test: ELISA, biotinylated peptide on NeutrAvidin plates
T10 peptide: {Biotin-Ahx}-TPAPAPKPEQPAEQPK-NH2

MBP-PspA-BAA658-S2 = biological target: T11, MBP-PspA-BAA658-S2 (Streptococcus pneumoniae strain BAA-658); test: ELISA on plates coated with E. coli lysate holding the MBP-tagged fragment
T11 construct: Tested as cleared E. coli lysate coated on ELISA plates; also called MBP-BAA658(S2)

MBP-PspA-BAA658-S3 [11] = biological target: T4, MBP-PspA-BAA658-S3; test: as above
MBP-PspA-BAA658-S1 = biological target: T12, MBP-PspA-BAA658-S1 (Streptococcus pneumoniae strain BAA-658); test: as above
T12 construct: Tested as cleared E. coli lysate coated on ELISA plates; also called MBP-BAA658(S1)

[12] = biological target: T9, synthetic peptide BAA658-PR1.2; test: ELISA, biotinylated peptide on NeutrAvidin plates, antibody at 1 μg/mL
[13] = biological target: T10, synthetic peptide BAA658-PR2; test: as above

B1: anti-PspA mouse monoclonal antibody 140H1 (antibody, V domains shown)
VH: QIQLVQSGPELKKPGETVRISCKASGYTFTTAGMQWVQKVPGKGLQWIGWINTHSGVPTYAEDFKGRIAFSLETSASAAYLQISNLKDEDTATYFCGRSGTGYAMDYWGQGTSVIVSS
VL: DTVMSQSPSSLVVSVGEKVSMSCKSSQNLLYTNNQKNYLAWYQQKPGQSPKLLIYWASTRESGVPDRFTGSGSGTDFTLTITSVKAEDLAVYYCQQYYTYPYTFGGGTKLEIK
notes: Hybridoma antibody, mouse IgG1, kappa, raised against PspA-D39; also called clone 140H1
- binding result [1]: binds
- binding result [2]: binds
- binding result (MBP-PspA-BAA658-S4): binds
- binding result (MBP-PspA-BAA658-S3 [3]): binds
- binding result (MBP-PspA-BAA658-FL): binds
- Kd [4]: < 100 nM
- Kd (recombinant PspA-BAA658): < 100 nM
- Kd [5]: < 100 nM

B2: anti-PspA mouse monoclonal antibody 140G1 (antibody, V domains shown)
VH: QVQLKESGPGLVAPSQSLSITCTVSGFSLIGYGVNWVRQPPGKGLEWLGMIWGDGSTDYNLVLKSRLSINKDNSKSQVFLQMNSLQTDDTARYYCARGPQWGFAYWGQGTLVSVSA
VL: DIVMSQSPSSLAVSAGEKVTMSCKSSQSLLNSRTRKNYLAWYQQKPGQSPKLLIYWASTRESGVPDRFTGSGSGTDFTLTISSVQAEDLAVYYCKQSYNLPTFGGGTKLEIK
notes: Hybridoma antibody, mouse IgG1, kappa, raised against PspA-D39; also called clone 140G1
- binding result [6]: no binding (tested: 1 μg/mL)
- binding result [7]: no binding (tested: 1 μg/mL)
- binding result [8]: no binding (tested: 1 μg/mL)
- binding result [9]: no binding (tested: 1 μg/mL)
- binding result [10]: no binding (tested: 1 μg/mL)
- binding result (MBP-PspA-BAA658-S4): binds
- binding result (MBP-PspA-BAA658-FL): binds
- binding result (MBP-PspA-BAA658-S2): no binding (tested: 1 μg/mL)
- binding result (MBP-PspA-BAA658-S3 [11]): no binding (tested: 1 μg/mL)
- binding result (MBP-PspA-BAA658-S1): no binding (tested: 1 μg/mL)

B3: anti-PspA mouse monoclonal antibody 140G11 (antibody, V domains shown)
VH: QVQLKESGPGLVAPSQSLSITCTVSGFSLTGYGVNWVRQPPGKGLEWLGMIWGDGSTDYNSALKSRLSISKDNSKSQVFLKMNSLQTDDTARYYCARGPQWGFAYWGQGTLVTVSA
VL: DIVMSQSPSSLAVSAGEKVTMSCKSSQSLLNSRTRKNYLAWYQQKPGQSPKLLIYWASTRESGVPDRFTGSGSGTDFTLTISSVQAEDLAVYYCKQSYNLPTFGGGTKLEIK
notes: Hybridoma antibody, mouse IgG2a, kappa, raised against PspA-D39; also called clone 140G11
- binding result [6]: no binding (tested: 1 μg/mL)
- binding result [7]: no binding (tested: 1 μg/mL)
- binding result [8]: no binding (tested: 1 μg/mL)
- binding result [9]: no binding (tested: 1 μg/mL)
- binding result [10]: no binding (tested: 1 μg/mL)
- binding result (MBP-PspA-BAA658-S2): no binding (tested: 1 μg/mL)
- binding result (MBP-PspA-BAA658-S3 [11]): no binding (tested: 1 μg/mL)
- binding result (MBP-PspA-BAA658-S1): no binding (tested: 1 μg/mL)

B4: anti-PspA mouse monoclonal antibody 139G3 (antibody, V domains shown)
VH: EVQLQQSGTEVVKPGASVKLSCTASGFNIKDTYIHWVKKRPEQGLEWIGRIDPANGNTRYDPKFQGKATMTADTSSNTAYLQVSSLTSEDTAVYYCSRSDKFVWFAYWGQGTLVTVSA
VL: DIVLTQSPVSLTVYMGQRATISCRASQSVSTSSYNYIHWFQQKPGQPPKLLIKYASTLESGVPARFSGGGSGTDFTLNIHPVEEEDAATYSCQHSWEIPYTFGGGTKLEIK
notes: Hybridoma antibody, mouse IgG2a, kappa, raised against PspA-TIGR4; also called clone 139G3
- binding result [12]: binds
- binding result [13]: binds
- binding result (MBP-PspA-BAA658-S4): binds
- binding result (MBP-PspA-BAA658-S3 [3]): binds
- binding result (MBP-PspA-BAA658-FL): binds
